Sequences and labels used below:
T1: human CXCR3 (hCXCR3) on Ba/F3 transfectant cells (human, UniProt P49682 1-368)
T1 sequence: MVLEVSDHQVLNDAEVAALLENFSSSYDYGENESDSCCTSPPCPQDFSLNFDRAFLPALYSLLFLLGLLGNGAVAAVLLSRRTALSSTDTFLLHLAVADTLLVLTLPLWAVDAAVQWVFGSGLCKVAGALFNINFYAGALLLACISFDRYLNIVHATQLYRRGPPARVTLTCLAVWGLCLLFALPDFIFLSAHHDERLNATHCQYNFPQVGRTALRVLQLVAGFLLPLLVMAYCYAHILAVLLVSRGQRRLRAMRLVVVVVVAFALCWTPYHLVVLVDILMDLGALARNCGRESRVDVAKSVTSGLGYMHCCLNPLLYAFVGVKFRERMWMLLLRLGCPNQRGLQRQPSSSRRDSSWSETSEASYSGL

B1: hCXCL11.0034-G1T4k.one//VHn-G1T4h.one.H435R (Fc fusion)
chain 1: RFPMFKRGRCLCIGPGVKAVKVADIEKASIMYPSNNCDKIEVIITLKENKGQRCLNPKSKQARLIIKKVERKNFEPKSSDKTHTCPPCPAPELRRGPSVFLFPPKPKDTLMISRTPEVTCVVVDVSHEDPEVKFNWYVDGVEVHNAKTKPREEQYNSTYRVVSVLTVLHQDWLNGKEYKCKVSNKGLPSSIEKTISKAKGQPREPQVCTLPPSREEMTKNQVSLWCLVKGFYPSDIAVEWESNGQPENNYKTTPPVLDSDGSFFLYSKLTVDKSRWQEGNVFSCSVMHEALHNHYTQKSLSLSP
chain 2: EPKSSDKTHTCPPCPAPELRRGPSVFLFPPKPKDTLMISRTPEVTCVVVDVSHEDPEVKFNWYVDGVEVHNAKTKPREEQYNSTYRVVSVLTVLHQDWLNGKEYKCKVSNKGLPSSIEKTISKAKGQPREPQVYTLPPSRCEMTKNQVSLSCAVKGFYPSDIAVEWESNGQPENNYKTTPPVLDSDGSFFLVSKLTVDKSRWQEGNVFSCSVMHEALHNRYTQKSLSLSP
B2: hCXCL11.0052-G1T4k.one//VHn-G1T4h.one.H435R (Fc fusion)
chain 1: B1 chain 1 with R1F, F2Q
chain 2: B1 chain 2
B3: hCXCL11.0053-G1T4k.one//VHn-G1T4h.one.H435R (Fc fusion)
chain 1: B1 chain 1 with R1F, F2R
chain 2: B1 chain 2
B4: hCXCL11.0041-G1T4k.one//VHn-G1T4h.one.H435R (Fc fusion)
chain 1: B1 chain 1 with R1F, F2D
chain 2: B1 chain 2
B5: hCXCL11.0042-G1T4k.one//VHn-G1T4h.one.H435R (Fc fusion)
chain 1: B1 chain 1 with R1F, F2E
chain 2: B1 chain 2
B6: hCXCL11.0037-G1T4k.one//VHn-G1T4h.one.H435R (Fc fusion)
chain 1: B1 chain 1 with R1V
chain 2: B1 chain 2
B7: hCXCL11.0045-G1T4k.one//VHn-G1T4h.one.H435R (Fc fusion)
chain 1: B1 chain 1 with R1F, F2H
chain 2: B1 chain 2
B8: hCXCL11.0040-G1T4k.one//VHn-G1T4h.one.H435R (Fc fusion)
chain 1: B1 chain 1 with R1F, F2A
chain 2: B1 chain 2
B9: hCXCL11.0046-G1T4k.one//VHn-G1T4h.one.H435R (Fc fusion)
chain 1: B1 chain 1 with R1F, F2I
chain 2: B1 chain 2
B10: hCXCL11.0036-G1T4k.one//VHn-G1T4h.one.H435R (Fc fusion)
chain 1: B1 chain 1 with R1T
chain 2: B1 chain 2
B11: hCXCL11.0035-G1T4k.one//VHn-G1T4h.one.H435R (Fc fusion)
chain 1: B1 chain 1 with R1S
chain 2: B1 chain 2
B12: hCXCL11.0047-G1T4k.one//VHn-G1T4h.one.H435R (Fc fusion)
chain 1: B1 chain 1 with R1F, F2K
chain 2: B1 chain 2
B13: hCXCL11.0039-G1T4k.one//VHn-G1T4h.one.H435R (Fc fusion)
chain 1: B1 chain 1 with R1Y
chain 2: B1 chain 2
B14: hCXCL11.0049-G1T4k.one//VHn-G1T4h.one.H435R (Fc fusion)
chain 1: B1 chain 1 with R1F, F2M
chain 2: B1 chain 2
B15: hCXCL11.0038-G1T4k.one//VHn-G1T4h.one.H435R (Fc fusion)
chain 1: B1 chain 1 with R1W
chain 2: B1 chain 2
B16: hCXCL11.0050-G1T4k.one//VHn-G1T4h.one.H435R (Fc fusion)
chain 1: B1 chain 1 with R1F, F2N
chain 2: B1 chain 2
B17: hCXCL11.0051-G1T4k.one//VHn-G1T4h.one.H435R (Fc fusion)
chain 1: B1 chain 1 with R1F, F2P
chain 2: B1 chain 2
B18: hCXCL11.0048-G1T4k.one//VHn-G1T4h.one.H435R (Fc fusion)
chain 1: B1 chain 1 with R1F, F2L
chain 2: B1 chain 2
B19: hCXCL11.0044-G1T4k.one//VHn-G1T4h.one.H435R (Fc fusion)
chain 1: B1 chain 1 with R1F, F2G
chain 2: B1 chain 2

This note sets out measurements from patent publication US20260217779A1 (Chugai, published 2026).

Residue numbers refer to the chain shown, from its start. Numbers in names are those of the source.

This assay addresses T1, human CXCR3 (hCXCR3) on Ba/F3 …. Description: cell-based or functional assay.
Regarding B1, the “Activity retention rate at 33 nM” value came out at 19%, the “Activity retention rate at 100 nM” value was 45%, the “Activity retention rate at 300 nM” value was 77% and the “Luminescence value at 33 nM” value amounted to 1.49e+06. Moreover, the “Luminescence value at 100 nM” value was found to be 7.45e+06 and the “Luminescence value at 300 nM” value turned out to be 9.63e+06.
On to B2, for which the “Activity retention rate at 33 nM” value amounted to 77%, the “Activity retention rate at 100 nM” value was 90%, the “Activity retention rate at 300 nM” value was 67% and the “Luminescence value at 33 nM” value came to 5.88e+06. Further, the “Luminescence value at 100 nM” value was determined as 1.51e+07 and the “Luminescence value at 300 nM” value was 8.33e+06.
Regarding B3, the “Activity retention rate at 33 nM” value came to 8%, the “Activity retention rate at 100 nM” value turned out to be 26%, the “Activity retention rate at 300 nM” value turned out to be 60% and the “Luminescence value at 33 nM” value is 595000. Also, the “Luminescence value at 100 nM” value was determined as 4.26e+06 and the “Luminescence value at 300 nM” value is 7.43e+06.
In the case of B4, the “Activity retention rate at 33 nM” value worked out at 25%, the “Activity retention rate at 100 nM” value is 56%, the “Activity retention rate at 300 nM” value is 42% and the “Luminescence value at 33 nM” value was found to be 1.92e+06. Further, the “Luminescence value at 100 nM” value is 9.37e+06 and the “Luminescence value at 300 nM” value was found to be 5.16e+06.
With B5, the “Activity retention rate at 33 nM” value stood at 61%, the “Activity retention rate at 100 nM” value was found to be 67%, the “Activity retention rate at 300 nM” value came out at 58% and the “Luminescence value at 33 nM” value amounted to 4.7e+06. Besides, the “Luminescence value at 100 nM” value came out at 1.12e+07 and the “Luminescence value at 300 nM” value was found to be 7.23e+06.
With B6, the “Activity retention rate at 33 nM” value worked out at 111%, the “Activity retention rate at 100 nM” value amounted to 111%, the “Activity retention rate at 300 nM” value amounted to 73% and the “Luminescence value at 33 nM” value came out at 8.51e+06. Moreover, the “Luminescence value at 100 nM” value came to 1.85e+07 and the “Luminescence value at 300 nM” value was determined as 9.07e+06.
Regarding B7, the “Activity retention rate at 33 nM” value was found to be 61%, the “Activity retention rate at 100 nM” value came to 75%, the “Activity retention rate at 300 nM” value is 67% and the “Luminescence value at 33 nM” value is 4.67e+06. For the same molecule, the “Luminescence value at 100 nM” value was 1.26e+07 and the “Luminescence value at 300 nM” value was determined as 8.3e+06.
Take B8: the “Activity retention rate at 33 nM” value stood at 81%, the “Activity retention rate at 100 nM” value came to 78%, the “Activity retention rate at 300 nM” value was 41% and the “Luminescence value at 33 nM” value came out at 6.26e+06. Besides, the “Luminescence value at 100 nM” value amounted to 1.31e+07 and the “Luminescence value at 300 nM” value is 5.05e+06.
With B9, the “Activity retention rate at 33 nM” value came to 10%, the “Activity retention rate at 100 nM” value was determined as 36%, the “Activity retention rate at 300 nM” value amounted to 65% and the “Luminescence value at 33 nM” value came to 760000. In addition, the “Luminescence value at 100 nM” value is 6.04e+06 and the “Luminescence value at 300 nM” value is 8.05e+06.
For B10, the “Activity retention rate at 33 nM” value was found to be 140%, the “Activity retention rate at 100 nM” value was 105%, the “Activity retention rate at 300 nM” value was determined as 53% and the “Luminescence value at 33 nM” value is 1.07e+07. For the same molecule, the “Luminescence value at 100 nM” value came to 1.76e+07 and the “Luminescence value at 300 nM” value is 6.59e+06.
As to B11, the “Activity retention rate at 33 nM” value turned out to be 161%, the “Activity retention rate at 100 nM” value was determined as 95%, the “Activity retention rate at 300 nM” value turned out to be 42% and the “Luminescence value at 33 nM” value was determined as 1.23e+07. The “Luminescence value at 100 nM” value worked out at 1.58e+07 and the “Luminescence value at 300 nM” value stood at 5.23e+06.
Turning to B12, the “Activity retention rate at 33 nM” value is 5%, the “Activity retention rate at 100 nM” value worked out at 22%, the “Activity retention rate at 300 nM” value is 52% and the “Luminescence value at 33 nM” value stood at 391000. Also, the “Luminescence value at 100 nM” value is 3.72e+06 and the “Luminescence value at 300 nM” value stood at 6.48e+06.
In the case of B13, the “Activity retention rate at 33 nM” value stood at 102%, the “Activity retention rate at 100 nM” value was found to be 86%, the “Activity retention rate at 300 nM” value stood at 75% and the “Luminescence value at 33 nM” value worked out at 7.86e+06. Moreover, the “Luminescence value at 100 nM” value is 1.43e+07 and the “Luminescence value at 300 nM” value worked out at 9.32e+06.
For the molecule B14, the “Activity retention rate at 33 nM” value was 66%, the “Activity retention rate at 100 nM” value turned out to be 90%, the “Activity retention rate at 300 nM” value amounted to 75% and the “Luminescence value at 33 nM” value was 5.1e+06. For the same molecule, the “Luminescence value at 100 nM” value amounted to 1.5e+07 and the “Luminescence value at 300 nM” value was 9.32e+06.
B15: the “Activity retention rate at 33 nM” value was determined as 60%, the “Activity retention rate at 100 nM” value was 83%, the “Activity retention rate at 300 nM” value is 99% and the “Luminescence value at 33 nM” value was determined as 4.63e+06. In addition, the “Luminescence value at 100 nM” value amounted to 1.39e+07 and the “Luminescence value at 300 nM” value turned out to be 1.23e+07.
As for B16, the “Activity retention rate at 33 nM” value was 30%, the “Activity retention rate at 100 nM” value turned out to be 51%, the “Activity retention rate at 300 nM” value is 64% and the “Luminescence value at 33 nM” value came to 2.32e+06. For the same molecule, the “Luminescence value at 100 nM” value stood at 8.49e+06 and the “Luminescence value at 300 nM” value amounted to 7.92e+06.
Turning to B17, the “Activity retention rate at 33 nM” value was determined as 84%, the “Activity retention rate at 100 nM” value is 89%, the “Activity retention rate at 300 nM” value turned out to be 82% and the “Luminescence value at 33 nM” value came out at 6.46e+06. The “Luminescence value at 100 nM” value turned out to be 1.49e+07 and the “Luminescence value at 300 nM” value came out at 1.02e+07.
Consider B18, for which the “Activity retention rate at 33 nM” value was found to be 52%, the “Activity retention rate at 100 nM” value was found to be 75%, the “Activity retention rate at 300 nM” value was found to be 72% and the “Luminescence value at 33 nM” value is 3.97e+06. The “Luminescence value at 100 nM” value was 1.25e+07 and the “Luminescence value at 300 nM” value was determined as 8.95e+06.
On to B19, for which the “Activity retention rate at 33 nM” value stood at 68%, the “Activity retention rate at 100 nM” value is 76%, the “Activity retention rate at 300 nM” value is 72% and the “Luminescence value at 33 nM” value is 5.24e+06. Also, the “Luminescence value at 100 nM” value turned out to be 1.27e+07 and the “Luminescence value at 300 nM” value amounted to 8.9e+06.
